In patent US20260159561A1 (MyNeuroCure Oy, priority 2017, published 2026):
Entries after “also recorded” stand apart in the source; their conditions may differ.

How the values were obtained:
[1] = tested on: SOD1-G93A mice; assay: SOD1-G93A mouse ALS model, 4-week chronic intracerebroventricular infusion; type: in vivo; settings: i.c.v. infusion 1.5 μg/24 h for 4 weeks, vs PBS
Description: (§1) Transgenic SOD1 G93A mice served as a transgenic mouse model for ALS in this study. Transgenic mice containing various human SOD1 mutations develop progressive neurodegeneration and motoneuron (MN) death, providing an animal model that has been commonly used for preclinical trials and that has greatly contributed to the understanding of FALS pathogenesis (Gurney et al., 1994). […] In these mice hind limb weakness and tremulous movement appear as initial symptoms at 8-10 week of age, followed by major symptoms such as progressive motor paralysis and neurogenic amyotrophy (Shibata 2001). […] Transgenic expression was analyzed by DNA tail tests and PCR, using specific oligonucleotides and conditions as done previously by others (see homepage Jackson Lab). […]
In the chronic infusion experiment, 12-week-old SOD1 mice were inserted a brain infusion cannula (connected via catheter-tubing to an Alzet osmotic minipump) to the right lateral ventricle under isoflurane anesthesia. […] Motor behavior was evaluated with rotarod. Mice were evaluated for clinical signs and body weight changes.
(§2) Clinical scoring for SOD1 mice was done using instructions from Jackson laboratory. […] Animals were scored by lifting them gently by the base of their tails and observing them for tremors, stiffness and their ability to extend their limbs. […]

[2] = tested on: Huntington's disease rat model (quinolinic acid); assay: Quinolinic acid Huntington's disease rat model, rotarod and grip strength; type: in vivo; settings: single intrastriatal injection 2 weeks after QA, vs QA+PBS
Description: Adult Wistar rats received a single, unilateral intrastriatal injection of quinolinic acid (QA) 225 nmol into coordinates: A/P+0.7; L/M+2.8; D/V −6.0. Quinolinic acid is a toxin that induces striatal neuron death by an excitotoxic process. […] Rats were randomized to groups before the treatments started. Rotarod and grip strength tests were done weekly.

[3] = tested on: SOD1-G93A mice; assay: SOD1-G93A mouse ALS model, single intracerebroventricular injection; type: in vivo; settings: females, vs PBS
Description: as §1, with “2001). These mice subsequently show disability of gait, eating and drinking and die within some weeks, usually at 14-16 week of age.” for “2001).”
Mice were then evaluated for signs of disease and body weight changes twice a week. […]
as §2

[4] = rat, in vivo, sc
Procedure: ^125I-CDNF, ^125I C-CDNF or ^125I C-MANF (all proteins at 106 cpm in 10 μl) were injected subcutaneously to adult male Wistar rats. Animals were perfused with PBS 2 hours later. Radioactivity was analyzed in different brain regions by gamma counter. Data are shown as mean±SEM. The differences between groups were analyzed ANOVA followed by Tukey-Kramers post hoc test.

[5] = tested on: ER stressed superior cervical ganglia (SCG) sympathetic neurons; assay: Survival of tunicamycin ER-stressed SCG neurons microinjected with expression plasmids; type: cell-based, mouse; settings: expressed from microinjected plasmids; tunicamycin 2 μM; counted after three days
Procedure: Non-neuronal cells were removed by extensive preplating. Almost pure neurons were cultured in polyornithine/laminin (Sigma)-coated 35-mm plastic dishes in the small-size standard microislands in the Neurobasal medium and B27 supplement (Invitrogen/Gibco) in the presence of 30 ng/ml mouse nerve growth factor (NGF) (Promega) for 5-6 days. NGF was deprived by extensive washing and addition of the function-blocking anti-NGF antibodies (Roche). The neurons were pressure-microinjected with special neuronal microinjection equipment (Hellman et al., 2011; Hamner et al., 2001; Lindholm et al., 2002; Sun et al., 2001; Yu et al., 2003)(Sun et al., 2001; Sun et al., 2003). For the survival assay, all neurons on the microislands were counted in the beginning (initial number) and the end (three days) of the experiment and expressed as % of initial.
Microinjection of the sympathetic neurons was performed as described earlier (Yu, L. Y., Jokitalo, E., Sun, Y. F., Mehlen, P., Lindholm, D., Saarma, M., and Arumäe, U. (2003) J. Cell Biol. 163, 987-997). […] Next day tunicamycin (2 μM) was added, and after 3 days the living fluorescent neurons were counted. Living fluorescent (EGFP-expressing or Dextran Texas Red-containing) neurons were “blindly” counted three days later and expressed as percent of initial living fluorescent neurons counted 2-3 hours after microinjection. […]

[6] = tested on: rat model of cerebral ischemia
Procedure: Male Sprague Dawley rats (weight 230-270 g, Envigo, Netherlands) were used for the experiments which were conducted according to the 3R principles of EU directive 2010/63/EU on the care and use of experimental animals, local laws and regulations, and were approved by the national Animal Experiment Board of Finland All experiments were performed in a blinded manner and the rats were assigned to different treatment groups randomly. Rats were anesthesized with chloral hydrate (0.4 g/kg, i.p). […] Briefly, the bilateral CCAs were identified and isolated through a ventral midline cervical incision. Rats were placed in stereotaxic apparatus and a craniotomy was made in the right hemisphere. The right (MCA) was ligated with a 10-0 suture and bilateral common carotids (CCA) were ligated with non-traumatic arterial clamps for 60 minutes. After sixty minutes of ischemia, the suture around the MCA and arterial clips on CCAs were removed to introduce a reperfusional injury. After recovery from anesthesia, the rats were returned to their home cage. Body temperatures during and after surgery were maintained at 37° C.
To test the neuroprotective effect of subcutaneous C-CDNF, 50 μg of C-CDNF was given 30-50 min before dMCA occlusion and immediately after reperfusion in volume of 100 μl s.c. Phosphate-buffered saline (PBS) was used as vehicle control. The rats were euthanized 2 days after dMCAo to measure the infarction volume by 2% 2,3,5-triphenyltetrazolium chloride (TTC; Sigma Aldrich, St. Louis, MO) staining. Rats were decapitated and the brains were removed and sliced into 2.0-mm-thick sections using an acrylic rat brain block. The brain slices were incubated in a 2% TTC solution (Sigma, St. Louis, MO, USA) for 15 min at room temperature and then transferred into a 4% paraformaldehyde solution for fixation. The area of infarction in each slice was measured with a digital scanner and ImageJ software. The volume of infarction in each animal was obtained from the product of average slice thickness (2 mm) and sum of infarction areas in rostral brain slices examined. […]

B1: C-CDNF: Human C-CDNF, SEQ ID NO: 4: C-terminal domain of mature CDNF, amino acid 101 to 161; recombinant, Histidine tag at C-terminus (protein, listed as Homo sapiens)
chain: KYEKTLDLASVDLRKMRVAELKQILHSWGEECRACAEKTDYVNLIQELAPKYAATHPKTEL
rotarod performance (motor coordination) ([1]; significant week 13 until week 19): improves motor coordination | relative changes in body weight ([1]; weeks 18 and 19): Significant differences between treatments in body weight | rotarod latency to fall (motor behavior) ([2]; equimolar to CDNF 10 micrograms): improved motor behavior statistically significantly; also recorded: improved motor performance in both rotarod and grip strength tests | grip strength (left paw) ([2]; 3 and 5 week time points): significantly improved performance at 3 and 5 week time points; also recorded: improved motor performance in both rotarod and grip strength tests | clinical score ([3]; single i.c.v. 3.75 μg at 13 weeks of age): statistically significantly better clinical scores | rotarod latency to fall ([3]; single i.c.v. 3.75 μg, 4-40 rpm, cut-off 4 min): improves the motor behavior | blood-brain-barrier penetration (radioactivity in brain) [4]: capable of penetrating neuronal cell membrane as well as the blood-brain-barrier | living fluorescent neurons, percentage of initial neurons [5]: rescue ER stressed superior cervical ganglia (SCG) sympathetic neurons | infarction volume ([6]; 50 μg s.c. before dMCA occlusion and after reperfusion, rostral part of cerebral cortex, 2 days after dMCAo): decreases the infarction volume | lesion size, smaller than in vehicle treated rats ([6]; 50 μg s.c. before occlusion and after reperfusion, vs PBS): about 50% | blood pressure and heart rate ([6]; rat, in vivo): does not affect blood pressure and heart rate
